This passage reports EC50 printed for a flat curve: luminescence stays and EC50, luminescence (RLU) in the PD-1/PD-L1 Blockade Assay results from patent US20240101716A1.

The assay deals with PD-L1 (blocking assay of Example 11) (UniProt Q9NZQ7).
Chain of PD-L1 (blocking assay of Example 11) (Q9NZQ7 19-239 limits assumed): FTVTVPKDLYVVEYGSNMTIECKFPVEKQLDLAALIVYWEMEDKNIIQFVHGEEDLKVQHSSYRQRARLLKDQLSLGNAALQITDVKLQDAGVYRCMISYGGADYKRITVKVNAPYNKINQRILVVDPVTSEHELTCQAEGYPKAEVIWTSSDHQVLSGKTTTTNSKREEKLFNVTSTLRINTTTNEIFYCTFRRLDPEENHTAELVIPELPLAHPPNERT

As for Human IgG1 (antibody), the EC50 printed for a flat curve: luminescence stays at the baseline of about 50000 RLU up to Log10 about 2.2 nM (no blockade), PD-1/PD-L1 Blockade Assay stood at 39.5 pM.

Substance Tecentriq (antibody) came in with an EC50, luminescence (RLU) in the PD-1/PD-L1 Blockade Assay of 0.318 nM.
